Data on 13 molecules can be found in patent US20250230247A1 (DREN BIO, published 2025).

The target of assay [1] is T1, human Dectin-1 (biosensor tests of Tables 3, 4A and 9; construct not stated) (human, UniProt Q9BXN2 66-247, limits assumed).
T1 construct: also called hDectin-1
T1 sequence (looked up): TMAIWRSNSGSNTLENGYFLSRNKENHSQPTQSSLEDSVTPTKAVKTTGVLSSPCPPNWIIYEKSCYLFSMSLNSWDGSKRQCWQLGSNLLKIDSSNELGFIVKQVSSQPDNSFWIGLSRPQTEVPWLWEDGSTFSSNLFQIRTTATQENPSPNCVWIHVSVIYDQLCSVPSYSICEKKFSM
Kind of assay: Octet. A general note: Biolayer interferometry detects binding as a change in optical thickness at a sensor tip.

The target of assay [2] is T1, human Dectin-1 (biosensor tests of …). The experiment in a line: Octet response. On X = 340: time not given here. On X = 470: time not given here.
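Wherever delta is given: Single-point dissociation rate (koff) fit for each variant binding domain, expressed as change versus the parental clone.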

B1: 2M24A.1.1 hFab (Fab, V domains shown)
VH: QVQLVQSGAEVKKPGASVKVSCKSSGYTFTAYYIHWVRQAPGQGLEWMGWINPNSGDTNYAQKFQGRITMTRDTSISTAYLELSRLRSDDTAVFYCARNSGSYSFGYWGQGTLVTVSS
VL: DIQMTQSPSSVSASVGDRVTITCRASQGISSWLAWYQQKPGKAPKLLIFGASSLQSGVPSRFSGSGSGTDFTLTVSSLQPEDFATYYCQQAASFPFTFGPGTKVDIE
notes: Fab; also called 2M24.1.1
The molecule B1 yielded a delta in assay [1] of 98%. Further, in assay [2], the “X = 340” value worked out at 0.305 and the “X = 470” value was 0.006.

B2: 2M24A.1.8 hFab (Fab, V domains shown)
VH: QVQLVQSGAEVKKPGASVKVSCKSSGYTFTDYYIHWVRQAPGQGLEWMGWINPNSGDTNYAQKFQGRITMTRDTSISTAYLELSRLRSDDTAVFYCARASGSYSFGYWGQGTLVTVSS
VL: DIQMTQSPSSVSASVGDRVTITCRASQGISSWLAWYQQKPGKAPKLLIFGASSLQSGVPSRFSGSGSGTDFTLTVSSLQPEDFATYYCQQAFSFPFTFGPGTKVDIE
notes: Fab; also called 2M24.1.8
As for B2, in assay [1], the delta stood at 100%. In assay [2], the “X = 340” value stood at 0.042 and the “X = 470” value came out at 0.

B3: 2M24A.1.13 hFab (Fab, V domains shown)
VH: QVQLVQSGAEVKKPGASVKVSCKSSGYTFTDYYIHWVRQAPGQGLEWMGWINPNSGDTNYAQKFQGRITMTRDTSISTAYLELSRLRSDDTAVFYCARASGSYSFGYWGQGTLVTVSS
VL: DIQMTQSPSSVSASVGDRVTITCRASQGISSWLAWYQQKPGKAPKLLIFGASSLQSGVPSRFSGSGSGTDFTLTVSSLQPEDFATYYCQQAYSFPFTFGPGTKVDIE
notes: Fab; also called 2M24.1.13
B3 had a delta in assay [1] of 100%. In assay [2], the “X = 340” value came out at 0.028 and the “X = 470” value amounted to 0.

B4: 2M24A.1.16 (Fab, V domains shown)
VH: QVQLVQSGAEVKKPGASVKVSCKSSGYTFTDYYIHWVRQAPGQGLEWMGWINPNSGDTNYAQKFQGRITMTRDTSISTAYLELSRLRSDDTAVFYCARNAGSYSFGYWGQGTLVTVSS
VL: DIQMTQSPSSVSASVGDRVTITCRASQGISSWLAWYQQKPGKAPKLLIFGASSLQSGVPSRFSGSGSGTDFTLTVSSLQPEDFATYYCQQAYSFPFTFGPGTKVDIE
notes: Fab; also called 2M24.1.16
Molecule B4 displayed a delta in assay [1] of 5%. Further, in assay [2], the “X = 290” value amounted to 0.12 and the “X = 350” value came to 0.114.

B5: 2M24A.1.4 hFab (Fab, V domains shown)
VH: QVQLVQSGAEVKKPGASVKVSCKSSGYTFTDYYIHWVRQAPGQGLEWMGWINPNSGDTNYAQKFQGRITMTRDTSISTAYLELSRLRSDDTAVFYCARNSGSASFGYWGQGTLVTVSS
VL: DIQMTQSPSSVSASVGDRVTITCRASQGISSWLAWYQQKPGKAPKLLIFGASSLQSGVPSRFSGSGSGTDFTLTVSSLQPEDFATYYCQQAASFPFTFGPGTKVDIE
notes: Fab; also called 2M24.1.4
Turning to B5, in assay [2], the “X = 340” value is 0 and the “X = 470” value is 0.

B6: 2M24A.1.11 hFab (Fab, V domains shown)
VH: QVQLVQSGAEVKKPGASVKVSCKSSGYTFTAYYIHWVRQAPGQGLEWMGWINPNSGDTNYAQKFQGRITMTRDTSISTAYLELSRLRSDDTAVFYCARNSGSYSFGYWGQGTLVTVSS
VL: DIQMTQSPSSVSASVGDRVTITCRASQGISSWLAWYQQKPGKAPKLLIFGASSLQSGVPSRFSGSGSGTDFTLTVSSLQPEDFATYYCQQAYSFPFTFGPGTKVDIE
notes: Fab; also called 2M24.1.11
B6 had a delta in assay [1] of 16%. Moreover, in assay [2], the “X = 340” value is 0.499 and the “X = 470” value is 0.418.

B7: 2M24A.1.5 hFab (Fab, V domains shown)
VH: QVQLVQSGAEVKKPGASVKVSCKSSGYTFTDYYIHWVRQAPGQGLEWMGWINPNSGDTNYAQKFQGRITMTRDTSISTAYLELSRLRSDDTAVFYCARNSGSYSFGYWGQGTLVTVSS
VL: DIQMTQSPSSVSASVGDRVTITCRASQGISSWLAWYQQKPGKAPKLLIFGASSLQSGVPSRFSGSGSGTDFTLTVSSLQPEDFATYYCQQAASFPFTFGPGTKVDIE
notes: Fab; also called 2M24.1.5
In assay [1], B7 showed a delta of 95%. In assay [2], the “X = 340” value amounted to 0.3 and the “X = 470” value came out at 0.014.

B8: 2M24A.1.6 hFab (Fab, V domains shown)
VH: QVQLVQSGAEVKKPGASVKVSCKSSGYTFTAYYIHWVRQAPGQGLEWMGWINPNSGDTNYAQKFQGRITMTRDTSISTAYLELSRLRSDDTAVFYCARNSGSYSFGYWGQGTLVTVSS
VL: DIQMTQSPSSVSASVGDRVTITCRASQGISSWLAWYQQKPGKAPKLLIFGASSLQSGVPSRFSGSGSGTDFTLTVSSLQPEDFATYYCQQAFSFPFTFGPGTKVDIE
notes: Fab; also called 2M24.1.6
For B8, the delta in assay [1] was 21%. For the same molecule, in assay [2], the “X = 340” value was 0.493 and the “X = 470” value is 0.39.

B9: 2M24A.1.10 hFab (Fab, V domains shown)
VH: QVQLVQSGAEVKKPGASVKVSCKSSGYTFTDYYIHWVRQAPGQGLEWMGWINPNSGDTNYAQKFQGRITMTRDTSISTAYLELSRLRSDDTAVFYCARNSGSYSFGYWGQGTLVTVSS
VL: DIQMTQSPSSVSASVGDRVTITCRASQGISSWLAWYQQKPGKAPKLLIFGASSLQSGVPSRFSGSGSGTDFTLTVSSLQPEDFATYYCQQAFSFPFTFGPGTKVDIE
notes: Fab; also called 2M24.1.10
In the case of B9, in assay [1], the delta was 18%. In assay [2], the “X = 340” value was 0.49 and the “X = 470” value was found to be 0.402.

B10: 2M24A.1.3 hFab (Fab, V domains shown)
VH: QVQLVQSGAEVKKPGASVKVSCKSSGYTFTDYYIHWVRQAPGQGLEWMGWINPNSGDTNYAQKFQGRITMTRDTSISTAYLELSRLRSDDTAVFYCARASGSYSFGYWGQGTLVTVSS
VL: DIQMTQSPSSVSASVGDRVTITCRASQGISSWLAWYQQKPGKAPKLLIFGASSLQSGVPSRFSGSGSGTDFTLTVSSLQPEDFATYYCQQAASFPFTFGPGTKVDIE
notes: Fab; also called 2M24.1.3
Consider B10, for which, in assay [2], the “X = 340” value came out at 0 and the “X = 470” value came out at 0.

B11: 2M24A.1.7 hFab (Fab, V domains shown)
VH: QVQLVQSGAEVKKPGASVKVSCKSSGYTFTDYYIHWVRQAPGQGLEWMGWINPNSGATNYAQKFQGRITMTRDTSISTAYLELSRLRSDDTAVFYCARNSGSYSFGYWGQGTLVTVSS
VL: DIQMTQSPSSVSASVGDRVTITCRASQGISSWLAWYQQKPGKAPKLLIFGASSLQSGVPSRFSGSGSGTDFTLTVSSLQPEDFATYYCQQAFSFPFTFGPGTKVDIE
notes: Fab; also called 2M24.1.7
In assay [1], B11 displayed a delta of 22%. Moreover, in assay [2], the “X = 340” value worked out at 0.51 and the “X = 470” value was 0.398.

B12: 2M24A.1.12 hFab (Fab, V domains shown)
VH: QVQLVQSGAEVKKPGASVKVSCKSSGYTFTDYYIHWVRQAPGQGLEWMGWINPNSGATNYAQKFQGRITMTRDTSISTAYLELSRLRSDDTAVFYCARNSGSYSFGYWGQGTLVTVSS
VL: DIQMTQSPSSVSASVGDRVTITCRASQGISSWLAWYQQKPGKAPKLLIFGASSLQSGVPSRFSGSGSGTDFTLTVSSLQPEDFATYYCQQAYSFPFTFGPGTKVDIE
notes: Fab; also called 2M24.1.12
Take B12: the delta in assay [1] was determined as 19%. Also, in assay [2], the “X = 340” value is 0.49 and the “X = 470” value is 0.399.

B13: 2M24A.1.2 hFab (Fab, V domains shown)
VH: QVQLVQSGAEVKKPGASVKVSCKSSGYTFTDYYIHWVRQAPGQGLEWMGWINPNSGATNYAQKFQGRITMTRDTSISTAYLELSRLRSDDTAVFYCARNSGSYSFGYWGQGTLVTVSS
VL: DIQMTQSPSSVSASVGDRVTITCRASQGISSWLAWYQQKPGKAPKLLIFGASSLQSGVPSRFSGSGSGTDFTLTVSSLQPEDFATYYCQQAASFPFTFGPGTKVDIE
notes: Fab; also called 2M24.1.2
As for B13, the delta in assay [1] amounted to 98%. Further, in assay [2], the “X = 340” value is 0.331 and the “X = 470” value worked out at 0.006.
